Measured values from the Human Domainome abundance scans (Beltran et al. 2025).
± gives the uncertainty stated by the source.

B1: Protein piccolo, residues 1058 to 1114; numbered along this chain, Q9Y6V0 (parent)
chain: TCPLCKTELNIGSKDPPNFNTCTECKNQVCNLCGFNPTPHLTEIQEWLCLNCQTQRA

Variants of: B1
Experiment: abundance fitness (aPCA) (normalised: wild type 0, dead -1); higher = more abundant; growth selection in yeast, the domain comes from the species named
Conditions: Homo sapiens

Variant | abundance fitness
TCPLCKTELNIGSIDPPNFNTCTECKNQVCNLCGFNPTPHLTEIQEWLCLNCQTQRA [K14I] | -0.653 ± 0.21
TCPLCKTELNIGSMDPPNFNTCTECKNQVCNLCGFNPTPHLTEIQEWLCLNCQTQRA [K14M] | -0.128 ± 0.18
TCPLCKTELNIGSTDPPNFNTCTECKNQVCNLCGFNPTPHLTEIQEWLCLNCQTQRA [K14T] | 0.013 ± 0.12
TCPLCKTELNIGSRDPPNFNTCTECKNQVCNLCGFNPTPHLTEIQEWLCLNCQTQRA [K14R] | 0.042 ± 0.1
TCPLCKTELNIGSFDPPNFNTCTECKNQVCNLCGFNPTPHLTEIQEWLCLNCQTQRA [K14F] | -0.36 ± 0.13
TCPLCKTELNIGSSDPPNFNTCTECKNQVCNLCGFNPTPHLTEIQEWLCLNCQTQRA [K14S] | -0.126 ± 0.1
TCPLCKTELNIGSPDPPNFNTCTECKNQVCNLCGFNPTPHLTEIQEWLCLNCQTQRA [K14P] | -0.116 ± 0.12
TCPLCKTELNIGSYDPPNFNTCTECKNQVCNLCGFNPTPHLTEIQEWLCLNCQTQRA [K14Y] | -0.554 ± 0.21
TCPLCKTELNIGSQDPPNFNTCTECKNQVCNLCGFNPTPHLTEIQEWLCLNCQTQRA [K14Q] | -0.092 ± 0.23
TCPLCKTELNIGSLDPPNFNTCTECKNQVCNLCGFNPTPHLTEIQEWLCLNCQTQRA [K14L] | -0.644 ± 0.12
TCPLCKTELNIGSEDPPNFNTCTECKNQVCNLCGFNPTPHLTEIQEWLCLNCQTQRA [K14E] | -0.226 ± 0.15
TCPLCKTELNIGSDDPPNFNTCTECKNQVCNLCGFNPTPHLTEIQEWLCLNCQTQRA [K14D] | 0.003 ± 0.14
TCPLCKTELNIGSKRPPNFNTCTECKNQVCNLCGFNPTPHLTEIQEWLCLNCQTQRA [D15R] | -0.257 ± 0.089
TCPLCKTELNIGSKNPPNFNTCTECKNQVCNLCGFNPTPHLTEIQEWLCLNCQTQRA [D15N] | 0.02 ± 0.24
TCPLCKTELNIGSKSPPNFNTCTECKNQVCNLCGFNPTPHLTEIQEWLCLNCQTQRA [D15S] | -0.051 ± 0.1
TCPLCKTELNIGSKFPPNFNTCTECKNQVCNLCGFNPTPHLTEIQEWLCLNCQTQRA [D15F] | 0.003 ± 0.15
TCPLCKTELNIGSKEPPNFNTCTECKNQVCNLCGFNPTPHLTEIQEWLCLNCQTQRA [D15E] | -0.248 ± 0.15
TCPLCKTELNIGSKYPPNFNTCTECKNQVCNLCGFNPTPHLTEIQEWLCLNCQTQRA [D15Y] | 0.124 ± 0.17
TCPLCKTELNIGSKAPPNFNTCTECKNQVCNLCGFNPTPHLTEIQEWLCLNCQTQRA [D15A] | -0.138 ± 0.12
TCPLCKTELNIGSKGPPNFNTCTECKNQVCNLCGFNPTPHLTEIQEWLCLNCQTQRA [D15G] | -0.124 ± 0.096
TCPLCKTELNIGSKPPPNFNTCTECKNQVCNLCGFNPTPHLTEIQEWLCLNCQTQRA [D15P] | -0.273 ± 0.16
TCPLCKTELNIGSKVPPNFNTCTECKNQVCNLCGFNPTPHLTEIQEWLCLNCQTQRA [D15V] | 0.001 ± 0.087
TCPLCKTELNIGSKWPPNFNTCTECKNQVCNLCGFNPTPHLTEIQEWLCLNCQTQRA [D15W] | -0.328 ± 0.099
TCPLCKTELNIGSKTPPNFNTCTECKNQVCNLCGFNPTPHLTEIQEWLCLNCQTQRA [D15T] | -0.013 ± 0.17

Variant | abundance fitness
TCPLCKTELNIGSKHPPNFNTCTECKNQVCNLCGFNPTPHLTEIQEWLCLNCQTQRA [D15H] | -0.239 ± 0.46
TCPLCKTELNIGSKCPPNFNTCTECKNQVCNLCGFNPTPHLTEIQEWLCLNCQTQRA [D15C] | -0.152 ± 0.13
TCPLCKTELNIGSKIPPNFNTCTECKNQVCNLCGFNPTPHLTEIQEWLCLNCQTQRA [D15I] | 0.01 ± 0.16
TCPLCKTELNIGSKMPPNFNTCTECKNQVCNLCGFNPTPHLTEIQEWLCLNCQTQRA [D15M] | -0.053 ± 0.13
TCPLCKTELNIGSKLPPNFNTCTECKNQVCNLCGFNPTPHLTEIQEWLCLNCQTQRA [D15L] | 0.015 ± 0.081
TCPLCKTELNIGSKKPPNFNTCTECKNQVCNLCGFNPTPHLTEIQEWLCLNCQTQRA [D15K] | -0.014 ± 0.25
TCPLCKTELNIESKDPPNFNTCTECKNQVCNLCGFNPTPHLTEIQEWLCLNCQTQRA [G12E] | 0.092 ± 0.11
TCPLCKTELNITSKDPPNFNTCTECKNQVCNLCGFNPTPHLTEIQEWLCLNCQTQRA [G12T] | 0.035 ± 0.14
TCPLCKTELNILSKDPPNFNTCTECKNQVCNLCGFNPTPHLTEIQEWLCLNCQTQRA [G12L] | -0.039 ± 0.082
TCPLCKTELNIFSKDPPNFNTCTECKNQVCNLCGFNPTPHLTEIQEWLCLNCQTQRA [G12F] | -0.203 ± 0.21
TCPLCKTELNIRSKDPPNFNTCTECKNQVCNLCGFNPTPHLTEIQEWLCLNCQTQRA [G12R] | -0.05 ± 0.08
TCPLCKTELNIVSKDPPNFNTCTECKNQVCNLCGFNPTPHLTEIQEWLCLNCQTQRA [G12V] | -0.405 ± 0.084
TCPLCKTELNINSKDPPNFNTCTECKNQVCNLCGFNPTPHLTEIQEWLCLNCQTQRA [G12N] | -0.611 ± 0.32
TCPLCKTELNIISKDPPNFNTCTECKNQVCNLCGFNPTPHLTEIQEWLCLNCQTQRA [G12I] | 0.154 ± 0.16
TCPLCKTELNICSKDPPNFNTCTECKNQVCNLCGFNPTPHLTEIQEWLCLNCQTQRA [G12C] | 0.077 ± 0.14
TCPLCKTELNIDSKDPPNFNTCTECKNQVCNLCGFNPTPHLTEIQEWLCLNCQTQRA [G12D] | 0.357 ± 0.17
TCPLCKTELNIYSKDPPNFNTCTECKNQVCNLCGFNPTPHLTEIQEWLCLNCQTQRA [G12Y] | -0.137 ± 0.18
TCPLCKTELNIKSKDPPNFNTCTECKNQVCNLCGFNPTPHLTEIQEWLCLNCQTQRA [G12K] | -0.216 ± 0.16
TCPLCKTELNIHSKDPPNFNTCTECKNQVCNLCGFNPTPHLTEIQEWLCLNCQTQRA [G12H] | -0.182 ± 0.39
TCPLCKTELNIWSKDPPNFNTCTECKNQVCNLCGFNPTPHLTEIQEWLCLNCQTQRA [G12W] | -0.326 ± 0.091
TCPLCKTELNIASKDPPNFNTCTECKNQVCNLCGFNPTPHLTEIQEWLCLNCQTQRA [G12A] | -0.361 ± 0.095
TCPLCKTELNIQSKDPPNFNTCTECKNQVCNLCGFNPTPHLTEIQEWLCLNCQTQRA [G12Q] | -0.3 ± 0.18
TCPLCKTELNIPSKDPPNFNTCTECKNQVCNLCGFNPTPHLTEIQEWLCLNCQTQRA [G12P] | 0.027 ± 0.13
